The subject of the data set is MS2 coat protein. Briefly: apparent KD of MS2 coat protein; designed switch direction (-1 OFF switch, 1 ON switch): -1; higher = weaker reporter binding. In short, it runs like this:
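Transcription of designed RNA switches on Illumina chips was done by stalled E. coli RNA polymerase. SNAP-549-labelled MS2 coat protein was then titrated in doubling steps from 0.7 or 1.5 nM to 3 µM, with steps of 0.8–1.5 h at the lowest and 10–20 min at the highest concentration. The per-design median over clusters of curve-fitted normalised fluorescence is reported as apparent KD.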

Where [1] appears, read: Eterna round: R95, input ligand: microRNA oligo, concentration not stated.
Setting [2] is: input ligand: microRNA oligo, concentration not stated.
Setting [3] is: Eterna round: R95, input ligand: FMN 200 uM.
The mark [4] stands for this setting: Eterna round: R95, input ligand: none.

On to “CCGCAAAUGCAGGAUAUCGUAUCGGAUACGAUACGAGAAGGGCAAACAUGAGGAUCACCCAUGUGUCCUAGCGG [Fiskers Ex 6 - 39] (puzzle: Exclusion 6)”, for which, under setting [1], the “apparent KD of MS2 coat protein” value amounted to 13.7 nM.
Take “CCGCUCCGUGUAGGAUAUUGGCCUGCUCUGGGCCGAGAAGGACAUGAGGAUCACCCAUGUAUGUUAUUAUCACGCGUGGCGCAU [Design 79] (Eterna round: R96, puzzle: Exclusion NG 1)”: the “apparent KD of MS2 coat protein” value runs as follows: (input ligand: FMN 200 uM) 31.6 nM; under setting [2], 14.5 nM; (input ligand: none) 21.6 nM.
With “CCGGAAAAGGAGGAUAUAGGAGUCGAUAGACACCUAGAAGGUCUGACAUGAGGAUCACCCAUGUGUCCUACCGG [Fiskers Ex 6 - 89] (puzzle: Exclusion 6)”, the “apparent KD of MS2 coat protein” value under setting [1] is 20.8 nM.
For “CCGGAAAUAGAGGAUAUAGGACUCGAUAGAGUCCUAGAAGGCUAUACAUGAGGAUCACCCAUGUGUCCUACCGG [Fiskers Ex 6 - 64] (puzzle: Exclusion 6)”, the “apparent KD of MS2 coat protein” value under setting [3] is 40.7 nM, the “apparent KD of MS2 coat protein” value under setting [1] came out at 13.6 nM and the “apparent KD of MS2 coat protein” value under setting [4] was found to be 13.4 nM.
With “CCGGAUAUGCAGGAUAUCGUAUCGGAUACGAUACGAGAAGGGUAUACAUGAGGAUCACCCAUGUGUCCUACCGG [Mat - Exclusion 6 - Eli Mod - D85] (puzzle: Exclusion 6)”, under setting [1], the “apparent KD of MS2 coat protein” value was determined as 19.8 nM.
Regarding “CCGGUGUGAGGAUAUCCAUCUGGAUCAGACUAGAUCCUGAUGGAGAAGGCACAUGAGGAUCACCCAUGUUACGG [Eli 4x 4.42] (Eterna round: R97, puzzle: Exclusion 4)”, the “apparent KD of MS2 coat protein” value (input ligand: FMN 200 uM) is 567 nM and the “apparent KD of MS2 coat protein” value (input ligand: none) was 656 nM.
For the sequence “CCGGUUGGCGCAGGAUAUACAUGAGGAUCACCCAUGUUCAUGAGGAUCACCCAUGAGGUAAUGAUGUAGAAGGGUGGCCCGGCC [A second MS2 with the first and last base exchanged] (Eterna round: R96, puzzle: Exclusion NG 2)”, the “apparent KD of MS2 coat protein” value came out at 30.5 nM (input ligand: FMN 200 uM), 18.5 nM under setting [2] and 33.6 nM (input ligand: none).
The like results for “CCGGUUGGCGCAGGAUAUACAUGAGGAUCACCCAUGUUCAUGAGGAUCGCCCAUGAGUUUUUGUUGUAGAAGGGUGGCCCGGCC (Eterna round: R96, puzzle: Exclusion NG 2)” were, in that order, 92.4 nM, 70 nM and 84 nM.
For the sequence “CCGUAACAUGAGGAUCACCCAUGUCAGGAUAUUCCAAAAUCGUCGAAAGACGAUAACAGAAGAAGGGACAACGG [Fiskxlusion 2 - Jieux - Exclusion 1] (Eterna round: R97, puzzle: Exclusion 1)”, the “apparent KD of MS2 coat protein” value worked out at 47.6 nM (input ligand: FMN 200 uM) and 28.9 nM (input ligand: none).
The like results for “CCGUAGUCAGGAUAUACAUGAGGAUCACCCAUGUAAAAUUUUAAUUUAAUUUGAAGGUGUAGAAGGGACCAGCC [Ex3 #28] (Eterna round: R97, puzzle: Exclusion 3)” were, in that order, 33.5 nM and 35.6 nM.
As for “CCGUGGCAAGGAUAUACAUAGGAGAGGAAGGCAAGAGGAGGACAUGAGGAUCACCCAUGUAGAAGGUGCAGAUC [JR_Exclu2_Sub028] (puzzle: Exclusion 2)”, under setting [1], the “apparent KD of MS2 coat protein” value came out at 71.7 nM.
As to “CCUAAACAUGAGGAUCACCCAUGUGAGGAUAUGCACACCACAACAUGCGGUUGAGGGUGCAGAAGGCAUAUGAG [Eternabot (L1) Solution 60] (Eterna round: R97, puzzle: Exclusion 1)”, the “apparent KD of MS2 coat protein” value runs as follows: (input ligand: FMN 200 uM) 99.2 nM; (input ligand: none) 34.2 nM.
For the sequence “CCUACGUUGUAGGAUAUAGUGAUUUAUUAAUAUUUAGAAGGACAUACAUGAGGAUCACCCAUGUGAGUUGGGUG [Eternabot (L2) Solution 27] (Eterna round: R97, puzzle: Exclusion 6)”, the “apparent KD of MS2 coat protein” value is, setting by setting: (input ligand: FMN 200 uM) 153 nM; (input ligand: none) 674 nM.
Turning to “CCUAGUUGGUAAGGAUAUCCUACACUGUUCUGACCCGGGCAUGCUACAUGAGGAUCACCCAUGUGGGAGAAGGUGCGUCAUCGC [Design 15] (Eterna round: R96, puzzle: Exclusion NG 2)”, the “apparent KD of MS2 coat protein” value amounted to 30.5 nM (input ligand: FMN 200 uM), 27.1 nM under setting [2] and 37.3 nM (input ligand: none).
For the sequence “CCUAGUUGGUAAGGAUAUCCUACAUUGUUCUGGCCCGGGCAUGCUACAUGAGGAUCACCCAUGUGGGAGAAGGUGCGUCAUCGC [Design 17] (Eterna round: R96, puzzle: Exclusion NG 2)”, the “apparent KD of MS2 coat protein” value was determined as 80.4 nM (input ligand: FMN 200 uM), 53.3 nM under setting [2] and 71.7 nM (input ligand: none).
For “CCUCAGUAAGGAUAUCAGCUUAUGGAGGUGGUAAUGAGAGCUGAGAAGGUACAUGAGGAUCACCCAUGUUAGUU [JL Zatite mod 1] (puzzle: Exclusion 4)”, the “apparent KD of MS2 coat protein” value under setting [1] was 46.2 nM.
As to “CCUCCACAUGAGGAUCACCCAUGUAAGGAUAUACCACGCUAAGGCAAACAAAAGAACGGUAGAAGGUACCUGGC [Eternabot (Original) Solution 44] (Eterna round: R97, puzzle: Exclusion 1)”, the “apparent KD of MS2 coat protein” value was found to be 32.7 nM (input ligand: FMN 200 uM) and 23.5 nM (input ligand: none).
The like results for “CCUCCCUGAGGAUAUCCACCCUCAUACAUGAGGAUCACCCAUGUUCAUCCGUGGGUACCCGGAGAAGGCAGCUCUC [Megrez-c] (Eterna round: R97, puzzle: Exclusion 5)” were, in that order, 80.8 nM and 86.7 nM.
For “CCUCGACAUGAGGAUCACCCAUGUCAGGAUAUUGUGUUUUUGGUUUUUUACCUUUAGGCAAGAAGGGAUGUGUG [LRO-Excl1-18] (puzzle: Exclusion 1)”, the “apparent KD of MS2 coat protein” value under setting [1] is 14.4 nM.
In the case of “CCUCGACAUGAGGAUCACCCAUGUGAGGAUAUGGCCUGUAUGGCGUGAGCUGAAUCAAUCAGAAGGCGCGUGGG [salish99_ex1_r4_054] (Eterna round: R97, puzzle: Exclusion 1)”, the “apparent KD of MS2 coat protein” value (input ligand: FMN 200 uM) was 56.3 nM and the “apparent KD of MS2 coat protein” value (input ligand: none) worked out at 27 nM.
As to “CCUCGUGCACGAGGAUAUUGGAAAGGAAGUGUACGAGAAGGCGUGCCGAGGGAACAUGAGGAUCACCCAUGUGGCCUCAUCACA [PowerStrip EXNG 1.13] (Eterna round: R96, puzzle: Exclusion NG 1)”, the “apparent KD of MS2 coat protein” value reads like this: (input ligand: FMN 200 uM) 120 nM; under setting [2], 97.5 nM; (input ligand: none) 152 nM.
Turning to “CCUCUACAUGAGGAUCACCCAUGUGAGGAUAUAAGAUUGCGGAUUCCGCACUACGGUCUUAGAAGGCGCGUGGA [Texebibia] (puzzle: Exclusion 1)”, under setting [1], the “apparent KD of MS2 coat protein” value came out at 17.2 nM.
The same measure, in the same setting: with “CCUGCACAUGAGGAUCACCCAUGUCAGGAUAUCUCGCCGUCGGCUUGCCGACGGUAUUAGAGAAGGGACACGGG [JL Tixe mod 1] (puzzle: Exclusion 1)” the figure was 22 nM.
Take “CCUGCGGACAAAGGAUAUUGCGGUGGCCGGCUCGGCGUACCGAGCCUACAUGAGGAUCACCCAUGUAAGAAGGUUGUCGUUGGU [JL ViennaUCT Qudice mod] (Eterna round: R96, puzzle: Exclusion NG 2)”: the “apparent KD of MS2 coat protein” value (input ligand: FMN 200 uM) came out at 186 nM, the “apparent KD of MS2 coat protein” value under setting [2] amounted to 26.9 nM and the “apparent KD of MS2 coat protein” value (input ligand: none) was 33.5 nM.
On to “CCUUCUCGUGUCAGGAUAUCCACUCAUCGAAAUUAGGAGAAGGGACAUGAGGAUCACCCAUGUAUACAUGCCAG [Cequesar] (puzzle: Brourd's mod of Exclusion 4)”, for which the “apparent KD of MS2 coat protein” value under setting [1] was 61.7 nM.
With “CCUUGGUGAGGAUAUUGAAAAUCUGUCAUAUGCCGACAACUCAAGAAGGUACAUGAGGAUCACCCAUGUUGGGC [Eternabot (Original) Solution 18] (Eterna round: R97, puzzle: Exclusion 4)”, the “apparent KD of MS2 coat protein” value by setting is: (input ligand: FMN 200 uM) 107 nM; (input ligand: none) 102 nM.
As for “CCUUUGUCAGGAUAUCAGAACGCGCUCGUAGGGAGCGCGAAUGAGAAGGGACAUGAGGAUCACCCAUGUAAAGA [Soedes] (puzzle: Exclusion 4)”, the “apparent KD of MS2 coat protein” value under setting [1] is 74.3 nM.
As to “CGAACUGUCUAGGAUAUACUCCCAUGCAGUUGAGUAGAAGGAGACACAUGAGGAUCACCCAUGUGACCCGAAGU [EX6 C.12] (Eterna round: R97, puzzle: Exclusion 6)”, the “apparent KD of MS2 coat protein” value is 25.3 nM (input ligand: FMN 200 uM) and 19.7 nM (input ligand: none).
Consider “CGAAGAUGAGGAUAUGCUACAGACAUGUUCGCGCAGAAGUAACAUGAGGAUCACCCAUGUAGAAGGCAUCUUUU [Eternabot (L2) Solution 88] (Eterna round: R97, puzzle: Exclusion 2)”, for which the “apparent KD of MS2 coat protein” value (input ligand: FMN 200 uM) is 36.5 nM and the “apparent KD of MS2 coat protein” value (input ligand: none) was 35.9 nM.
For the sequence “CGAAGUAGAAACCGAUCCUACAUGAGGAUCACCCAUGUAGCAAGACGUGCACGCGAAGCUCGUCAGACUACCAGAAG [salish99_TOv1_r3_004] (puzzle: Sensor v3, turn-off variant 1)”, the “apparent KD of MS2 coat protein” value is 343 nM under setting [3], 352 nM under setting [1] and 332 nM under setting [4].
Turning to “CGAUGCUCGAGUCGACAUGAGGAUCACCCAUGUAGAGUUAGUGAGGAUAUCGGAGACACAUAGUAUGAGAAGGCGCGAACCUGA [Ex NG3 #17] (Eterna round: R96, puzzle: Exclusion NG 3)”, the “apparent KD of MS2 coat protein” value by setting is: (input ligand: FMN 200 uM) 21.8 nM; under setting [2], 16.3 nM; (input ligand: none) 18.8 nM.
For “CGAUUGUGAGGAUAUACUUGUGGUAAUGCACCUGUAUGUAAACAUGAGGAUCACCCAUGUAGAAGGUACGACAG [Eternabot (L2) Solution 11] (Eterna round: R97, puzzle: Exclusion 2)”, the “apparent KD of MS2 coat protein” value runs as follows: (input ligand: FMN 200 uM) 27.6 nM; (input ligand: none) 27.5 nM.
The like results for “CGCACACAUGAGGAUCACCCAUGUGAGGAUAUCAUGCUUCGUAGUAAACUACGAAGUGUGAGAAGGCACAUGCA [Omei Ex1 D6] (Eterna round: R97, puzzle: Exclusion 1)” were, in that order, 169 nM and 44.4 nM.

Source of the values: the supplement of paper PMC9170038.
